According to PMC12282144 (Journal of Virology, 2025):

Key:
[1] = target: T1, recombinant Fc-tagged NRP2 ectodomain (human, UniProt O60462 21-864); assay: […] (10, 20 or 50 µL, […]) in 0.2 mL PBS for 2 h; […]; conditions: both partners purified
T1 construct: not shown: Fc, C-terminal, kept
T1 sequence: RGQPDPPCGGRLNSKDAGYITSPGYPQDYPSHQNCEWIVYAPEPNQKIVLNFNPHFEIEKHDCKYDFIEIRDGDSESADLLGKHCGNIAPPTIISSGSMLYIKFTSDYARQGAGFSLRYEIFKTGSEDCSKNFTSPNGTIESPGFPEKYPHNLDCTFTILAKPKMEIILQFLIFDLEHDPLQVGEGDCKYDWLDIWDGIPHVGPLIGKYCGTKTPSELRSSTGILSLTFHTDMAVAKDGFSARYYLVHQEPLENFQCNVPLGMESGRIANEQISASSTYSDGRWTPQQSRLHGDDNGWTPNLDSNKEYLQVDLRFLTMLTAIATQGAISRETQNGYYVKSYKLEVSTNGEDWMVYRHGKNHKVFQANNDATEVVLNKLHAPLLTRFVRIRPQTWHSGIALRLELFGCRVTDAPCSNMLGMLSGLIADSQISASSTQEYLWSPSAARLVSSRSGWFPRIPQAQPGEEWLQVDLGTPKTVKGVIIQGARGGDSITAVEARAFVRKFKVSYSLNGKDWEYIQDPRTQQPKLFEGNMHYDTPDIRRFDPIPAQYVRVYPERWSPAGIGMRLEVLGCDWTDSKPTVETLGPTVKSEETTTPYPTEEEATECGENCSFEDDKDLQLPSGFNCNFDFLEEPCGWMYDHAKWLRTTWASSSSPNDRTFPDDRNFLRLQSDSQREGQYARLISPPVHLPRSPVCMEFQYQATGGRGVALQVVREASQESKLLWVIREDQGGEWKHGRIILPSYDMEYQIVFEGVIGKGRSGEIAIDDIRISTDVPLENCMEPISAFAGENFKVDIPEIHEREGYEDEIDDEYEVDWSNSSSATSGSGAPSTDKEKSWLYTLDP

[2] = target: T2, N-terminal GST-tagged soluble ectodomain of NRP2 (aa 17-865) (human, UniProt O60462 17-865); assay: pull-down; conditions: both partners purified
T2 construct: not shown: GST, N-terminal, kept
T2 sequence: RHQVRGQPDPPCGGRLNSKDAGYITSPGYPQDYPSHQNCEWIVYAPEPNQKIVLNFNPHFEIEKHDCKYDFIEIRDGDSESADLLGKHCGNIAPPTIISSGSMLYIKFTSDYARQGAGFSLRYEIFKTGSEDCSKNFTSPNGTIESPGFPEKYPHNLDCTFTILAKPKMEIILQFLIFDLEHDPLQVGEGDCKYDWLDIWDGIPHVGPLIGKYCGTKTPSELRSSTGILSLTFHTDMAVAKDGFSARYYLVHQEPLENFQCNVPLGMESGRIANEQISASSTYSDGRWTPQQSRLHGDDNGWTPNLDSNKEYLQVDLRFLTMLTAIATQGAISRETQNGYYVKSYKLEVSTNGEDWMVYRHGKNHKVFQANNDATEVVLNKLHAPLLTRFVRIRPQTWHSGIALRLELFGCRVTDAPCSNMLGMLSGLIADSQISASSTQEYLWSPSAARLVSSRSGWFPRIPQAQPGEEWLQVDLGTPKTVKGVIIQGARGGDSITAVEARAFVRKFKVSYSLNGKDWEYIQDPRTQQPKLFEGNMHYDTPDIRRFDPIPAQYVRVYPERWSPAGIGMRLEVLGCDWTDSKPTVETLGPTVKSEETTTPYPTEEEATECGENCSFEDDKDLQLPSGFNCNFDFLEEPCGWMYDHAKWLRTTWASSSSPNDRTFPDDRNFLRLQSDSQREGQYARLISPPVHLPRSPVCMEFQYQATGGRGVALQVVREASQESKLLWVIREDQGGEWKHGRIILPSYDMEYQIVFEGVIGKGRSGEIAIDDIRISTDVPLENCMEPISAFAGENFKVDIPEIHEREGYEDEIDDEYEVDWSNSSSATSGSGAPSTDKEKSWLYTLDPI

B1: RABV G on purified ERA(G/Flag) particles (natural protein)
chain: KFPIYTILDKLGPWSPIDIHHLSCPNNLVVEDEGCTNLSGFSYMELKVGYILAIKMNGFTCTGVVTEAETYTNFVGYVTTTFKRKHFRPTPDACRAAYNWKMAGDPRYEESLHNPYPDYRWLRTVKTTKESLVIISPSVADLDPYDRSLHSRVFPSGKCSGVAVSSTYCSTNHDYTIWMPENPRLGMSCDIFTNSRGKRASKGSETCGFVDERGLYKSLKGACKLKLCGVLGLRLMDGTWVAMQTSNETKWCPPDQLVNLHDFRSDEIEHLVVEELVRKREECLDALESIMTTKSVSFRRLSHLRKLVPGFGKAYTIFNKTLMEADAHYKSVRTWNEILPSKGCLRVGGRCHPHVNGVFFNGIILGPDGNVLIPEMQSSLLQQHMELLESSVIPLVHPLADPSTVFKDGDEAEDFVEVHLPDVHNQVSGVDLGLPNWGKYVLLSAGALTALMLIIFLMTCCRRVNRSEPTQHNLRGTGREVSVTPQSGKIISSWESHKSGGETRL
- binding result [1]: binds
- binding result [2]: binds
